Data reported in publication PMC9352680, “A comprehensive thermodynamic model for RNA binding by the Saccharomyces cerevisiae Pumilio protein PUF4”.

T1: PUF4 RNA-binding domain (Saccharomyces cerevisiae, UniProt P25339 537-888)
T1 sequence: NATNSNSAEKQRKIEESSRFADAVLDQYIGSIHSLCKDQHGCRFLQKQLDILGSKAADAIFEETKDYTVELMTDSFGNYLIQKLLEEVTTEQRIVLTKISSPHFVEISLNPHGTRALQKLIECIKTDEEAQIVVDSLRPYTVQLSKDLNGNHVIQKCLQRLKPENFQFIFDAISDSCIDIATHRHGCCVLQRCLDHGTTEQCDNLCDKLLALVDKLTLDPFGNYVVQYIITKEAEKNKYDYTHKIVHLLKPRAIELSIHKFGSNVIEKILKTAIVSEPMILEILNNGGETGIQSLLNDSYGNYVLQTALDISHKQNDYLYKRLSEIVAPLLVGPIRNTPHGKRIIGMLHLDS


target: T1, PUF4 RNA-binding domain; experiment: Mg; RNA-MaP; 20 mM Na-HEPES pH 7.4, 30 mM KOAc, 0.75 mM MgCl2, 0.1% Tween-20, 5% glycerol, 0.1 mg/mL BSA, 2 mM DTT; 25 C; 0.0125-409.6 nM protein; conditions: tags: N-His6-TEV cleaved; C-SNAP kept, Cy3B-labelled; label: tethered on chip by stalled RNA polymerase

Binder	Kd
UCUCUUUGUACAAUUUCUCUU (ssRNA) [Ic_S1_P4E.1_K4.1_C4.1_H4.1_A4.1_[T5C]_[T7A]_F4.1_[A9T]_T4.1]	11.2 nM
UCUCUUUGUAAGCUCUCUCUU (ssRNA) [Ic_S1_P4E.1_K4.1_C4.1_H4.1_A4.1_[T5A]_[A6G]_[T7C]_F4.1_[A9C]_T4.1]	1840 nM
UCUCUUUGUACAUGUUCUCUU (ssRNA) [Ic_S1_P4E.1_K4.1_C4.1_H4.1_A4.1_[T5C]_F4.1_[T8G]_[A9T]_T4.1]	20.9 nM
UCUCUUUGUACACGAUCUCUU (ssRNA) [Ic_S1_P4E.1_K4.1_C4.1_H4.1_A4.1_[T5C]_[T7C]_F4.1_[T8G]_T4.1]	60.9 nM
UCUCUUUGUACUAACUCUCUU (ssRNA) [Ic_S1_P4E.1_K4.1_C4.1_H4.1_A4.1_[T5C]_[A6T]_[T7A]_F4.1_[T8A]_[A9C]_T4.1]	330 nM
UCUCUUUGUAAGCCCUCUCUU (ssRNA) [Ic_S1_P4E.1_K4.1_C4.1_H4.1_A4.1_[T5A]_[A6G]_[T7C]_F4.1_[T8C]_[A9C]_T4.1]	2290 nM
UCUCUUUGUACAAGCUCUCUU (ssRNA) [Ic_S1_P4E.1_K4.1_C4.1_H4.1_A4.1_[T5C]_[T7A]_F4.1_[T8G]_[A9C]_T4.1]	692 nM
UCUCUUUGUACAGUUUCUCUU (ssRNA) [Ic_S1_P4E.1_K4.1_C4.1_H4.1_A4.1_[T5C]_[T7G]_F4.1_[A9T]_T4.1]	13.3 nM
UCUCUUUGUACUAAAUCUCUU (ssRNA) [Ic_S1_P4E.1_K4.1_C4.1_H4.1_A4.1_[T5C]_[A6T]_[T7A]_F4.1_[T8A]_T4.1]	69.7 nM
UCUCUUUGUACAUCCUCUCUU (ssRNA) [Ic_S1_P4E.1_K4.1_C4.1_H4.1_A4.1_[T5C]_F4.1_[T8C]_[A9C]_T4.1]	29.5 nM
UCUCUUUGUACACGGUCUCUU (ssRNA) [Ic_S1_P4E.1_K4.1_C4.1_H4.1_A4.1_[T5C]_[T7C]_F4.1_[T8G]_[A9G]_T4.1]	468 nM
UCUCUUUGUACUAUUUCUCUU (ssRNA) [Ic_S1_P4E.1_K4.1_C4.1_H4.1_A4.1_[T5C]_[A6T]_[T7A]_F4.1_[A9T]_T4.1]	9.22 nM
UCUCUUUGUACUUAGUCUCUU (ssRNA) [Ic_S1_P4E.1_K4.1_C4.1_H4.1_A4.1_[T5C]_[A6T]_F4.1_[T8A]_[A9G]_T4.1]	43 nM
UCUCUUUGUACAGCGUCUCUU (ssRNA) [Ic_S1_P4E.1_K4.1_C4.1_H4.1_A4.1_[T5C]_[T7G]_F4.1_[T8C]_[A9G]_T4.1]	112 nM
UCUCUUUGUACACUGUCUCUU (ssRNA) [Ic_S1_P4E.1_K4.1_C4.1_H4.1_A4.1_[T5C]_[T7C]_F4.1_[A9G]_T4.1]	5.05 nM
UCUCUUUGUACACAAUCUCUU (ssRNA) [Ic_S1_P4E.1_K4.1_C4.1_H4.1_A4.1_[T5C]_[T7C]_F4.1_[T8A]_T4.1]	17.1 nM

Binder	Kd
UCUCUUUGUAAGCUAUCUCUU (ssRNA) [Ic_S1_P4E.1_K4.1_C4.1_H4.1_A4.1_[T5A]_[A6G]_[T7C]_F4.1_T4.1]	26.5 nM
UCUCUUUGUACAAUCUCUCUU (ssRNA) [Ic_S1_P4E.1_K4.1_C4.1_H4.1_A4.1_[T5C]_[T7A]_F4.1_[A9C]_T4.1]	16.7 nM
UCUCUUUGUACAUGCUCUCUU (ssRNA) [Ic_S1_P4E.1_K4.1_C4.1_H4.1_A4.1_[T5C]_F4.1_[T8G]_[A9C]_T4.1]	28.6 nM
UCUCUUUGUACUAGCUCUCUU (ssRNA) [Ic_S1_P4E.1_K4.1_C4.1_H4.1_A4.1_[T5C]_[A6T]_[T7A]_F4.1_[T8G]_[A9C]_T4.1]	643 nM
UCUCUUUGUAAGCACUCUCUU (ssRNA) [Ic_S1_P4E.1_K4.1_C4.1_H4.1_A4.1_[T5A]_[A6G]_[T7C]_F4.1_[T8A]_[A9C]_T4.1]	1880 nM
UCUCUUUGUACACUCUCUCUU (ssRNA) [Ic_S1_P4E.1_K4.1_C4.1_H4.1_A4.1_[T5C]_[T7C]_F4.1_[A9C]_T4.1]	8.95 nM
UCUCUUUGUACACCGUCUCUU (ssRNA) [Ic_S1_P4E.1_K4.1_C4.1_H4.1_A4.1_[T5C]_[T7C]_F4.1_[T8C]_[A9G]_T4.1]	407 nM
UCUCUUUGUACACCCUCUCUU (ssRNA) [Ic_S1_P4E.1_K4.1_C4.1_H4.1_A4.1_[T5C]_[T7C]_F4.1_[T8C]_[A9C]_T4.1]	118 nM
UCUCUUUGUACACAUUCUCUU (ssRNA) [Ic_S1_P4E.1_K4.1_C4.1_H4.1_A4.1_[T5C]_[T7C]_F4.1_[T8A]_[A9T]_T4.1]	22.6 nM
UCUCUUUGUACUUCUUCUCUU (ssRNA) [Ic_S1_P4E.1_K4.1_C4.1_H4.1_A4.1_[T5C]_[A6T]_F4.1_[T8C]_[A9T]_T4.1]	75.2 nM
UCUCUUUGUACAACGUCUCUU (ssRNA) [Ic_S1_P4E.1_K4.1_C4.1_H4.1_A4.1_[T5C]_[T7A]_F4.1_[T8C]_[A9G]_T4.1]	92.3 nM
UCUCUUUGUACUUUCUCUCUU (ssRNA) [Ic_S1_P4E.1_K4.1_C4.1_H4.1_A4.1_[T5C]_[A6T]_F4.1_[A9C]_T4.1]	39.6 nM
UCUCUUUGUACAACAUCUCUU (ssRNA) [Ic_S1_P4E.1_K4.1_C4.1_H4.1_A4.1_[T5C]_[T7A]_F4.1_[T8C]_T4.1]	14.4 nM
UCUCUUUGUACACUUUCUCUU (ssRNA) [Ic_S1_P4E.1_K4.1_C4.1_H4.1_A4.1_[T5C]_[T7C]_F4.1_[A9T]_T4.1]	7.32 nM
UCUCUUUGUACAAACUCUCUU (ssRNA) [Ic_S1_P4E.1_K4.1_C4.1_H4.1_A4.1_[T5C]_[T7A]_F4.1_[T8A]_[A9C]_T4.1]	142 nM
UCUCUUUGUACAUAGUCUCUU (ssRNA) [Ic_S1_P4E.1_K4.1_C4.1_H4.1_A4.1_[T5C]_F4.1_[T8A]_[A9G]_T4.1]	5.5 nM
